We go through ten molecules from US20150093336A1 (VIB VZW, published 2015).

To fix the notation:
B1: NbhmMMRm3.49 (VHH)
VHH: QVQLQESGGGLVQPGGSLRLSCAASGFSLDYYAIGWFRQAPGKEREGISCISYKGGSTTYADSVKGRFTISKDNAKNTAYLQMNSLKPEDTGIYSCAAGFVCYNYDYWGQGTQVTVSS
notes: Produced from pMECS with C-terminal HA and 6xHis tag; also called NbhMMRm3.49
B2: NbhmMMRm14.4 (VHH)
VHH: QVQLQESGGGLVQAGDSLRLSCAASGRTFSINYMGWYRQAPGKQRELVAAITSGSGSTNYADSVKGRFTISRDNAKNTMYLQMNSLKPEDTAVYYCNADMDSSLSGGYVDVWGQGTQVTVSS
notes: Produced from pMECS with C-terminal HA and 6xHis tag
B3: NbhmMMRm14.93 (VHH)
VHH: B2 VHH with N77K
notes: as for B2
B4: NbhmMMRm20.52 (VHH)
VHH: QVQLQESGGGLVQAGGSLRLSCAASGRIFSAYAMGWFRQAPGKEREFVAAISRSGDSTDYADSVKGRFTISRDSAKNMVYLQMNSLKPEDTALYHCAARTVSAPPSAAWGYGYWGQGTQVTVSS
notes: as for B2
B5: NbhmMMRm19.52 (VHH)
VHH: QVQLQESGGGLVQAGGSLRLSCLASGDTFSNYVMAWFRQAPGKEREIVAAIRLSGARYVPDSVKGRFTISRDNAKNAMYLQMTSLKPEDTARYYCAAGHTWGQYAYWGQGTQVTVSS
notes: as for B2
B6: NbhMMRm1.33 (VHH)
VHH: QVQLQESGGGLVQPGGSLRLSCAASGFTLDNYTVAWFRQAPGKEREGVSCISSSGGSTNYADSVKGRFTISRDNSKKSVYLQMNSLKPEDTAIYTCAAERAPPYYSGYYFFDSTCVAASYDYWGQGTQVTVSS
notes: Produced from pMECS in E. coli WK6 with C-terminal HA and 6xHis tag; also called NbMMRm1.33
B7: NbhMMRm11.5 (VHH)
VHH: QVQLQESGGGLVQPGGSLMLSCAASGNIFTINRMGWYRQAPGKQRELVAAITSGGNTNYADSVKGRFTISRDNAKNTVYLQMNSLKPEDTAVYYCNAAIVTMTSPYSDYWGQGTQVTVSS
notes: as for B2
B8: NbhMMRm10.19 (VHH)
VHH: QVQLQESGGGLVQPGGSLKLSCAASGSIFSIKTMGWYRQAPGKQRELVAAITSGGSTNYADSVKGRFTISRDNAKNTVYLQMNSLKPEDTAVYYCNADGVVAWDQPYDNYWGQGTQVTVSS
notes: as for B2
B9: NbhmMMRm10.79 (VHH)
VHH: B8 VHH with I51V, T52S, T77A
notes: as for B2
B10: NbhMMRm2.15 (VHH)
VHH: QVQLQESGGGLVQPGESLRLSCKLSGFTLDYYDIGWFRQAPGKEREGVSCISSIGGSANYADSVKGRFTISRDNVKNTVYLQMNSLKPEDTAIYYCAAEAQTPYNDGDCTRASYDYWGQGIQVTVSS
notes: as for B2

Substitutions are numbered along the chain they refer to.

For the first assay, the target named is T1, Recombinant mouse MMR (R&D systems) (mouse, UniProt Q61830 20-1388).
T1 construct: Antigen of the PE-ELISA and the SPR; also called mMMR; recombinant mMMR
T1 sequence: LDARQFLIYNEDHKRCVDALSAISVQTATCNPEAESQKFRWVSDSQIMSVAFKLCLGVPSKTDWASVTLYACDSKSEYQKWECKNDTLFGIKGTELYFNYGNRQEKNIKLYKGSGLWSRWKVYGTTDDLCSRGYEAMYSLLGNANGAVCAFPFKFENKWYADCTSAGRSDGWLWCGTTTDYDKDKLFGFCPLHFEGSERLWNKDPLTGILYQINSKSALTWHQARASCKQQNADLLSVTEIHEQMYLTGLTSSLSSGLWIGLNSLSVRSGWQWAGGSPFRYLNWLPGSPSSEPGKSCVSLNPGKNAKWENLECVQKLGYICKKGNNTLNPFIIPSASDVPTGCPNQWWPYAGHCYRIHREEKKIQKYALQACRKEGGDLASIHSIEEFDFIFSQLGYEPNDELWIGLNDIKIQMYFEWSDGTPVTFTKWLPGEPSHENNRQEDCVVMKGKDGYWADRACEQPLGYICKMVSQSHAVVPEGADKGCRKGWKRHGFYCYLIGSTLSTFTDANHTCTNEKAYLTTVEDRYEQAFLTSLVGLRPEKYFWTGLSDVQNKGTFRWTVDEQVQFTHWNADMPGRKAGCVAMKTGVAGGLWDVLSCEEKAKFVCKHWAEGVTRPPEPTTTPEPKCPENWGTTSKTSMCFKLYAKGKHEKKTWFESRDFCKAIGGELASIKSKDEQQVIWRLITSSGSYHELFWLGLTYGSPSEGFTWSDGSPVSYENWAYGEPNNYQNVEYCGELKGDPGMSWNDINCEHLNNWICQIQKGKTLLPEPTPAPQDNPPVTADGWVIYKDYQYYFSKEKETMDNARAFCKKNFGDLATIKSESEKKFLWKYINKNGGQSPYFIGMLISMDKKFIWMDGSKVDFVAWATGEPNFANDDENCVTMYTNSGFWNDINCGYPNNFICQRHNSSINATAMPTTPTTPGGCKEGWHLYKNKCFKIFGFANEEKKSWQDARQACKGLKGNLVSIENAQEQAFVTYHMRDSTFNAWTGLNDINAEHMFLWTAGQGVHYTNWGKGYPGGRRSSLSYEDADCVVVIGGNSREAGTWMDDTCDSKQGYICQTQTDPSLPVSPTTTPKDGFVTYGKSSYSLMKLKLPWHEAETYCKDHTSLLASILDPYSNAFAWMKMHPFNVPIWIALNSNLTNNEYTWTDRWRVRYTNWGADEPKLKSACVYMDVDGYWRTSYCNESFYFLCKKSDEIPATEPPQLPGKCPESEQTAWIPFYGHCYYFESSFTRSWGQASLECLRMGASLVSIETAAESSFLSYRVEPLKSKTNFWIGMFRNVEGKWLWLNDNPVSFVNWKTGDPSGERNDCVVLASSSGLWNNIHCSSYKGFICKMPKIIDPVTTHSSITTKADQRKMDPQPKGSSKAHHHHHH
Briefly: SPR, BIAcore T100; mouse MMR on CM5 chip, sdAb as analyte. Here is the method:
(§1) Affinity analysis was performed using a BIAcore™ T100 (GE Healthcare) with HEPES-buffered saline running buffer (10 mM HEPES with 0.15 M NaCl, 3.4 mM EDTA and 0.005% surfactant P20 at pH 7.4). MRR was immobilized on a CM5 chip in acetate buffer 50 mM (pH 5.0), resulting in 2100 RU MMR coated on the chip. A second channel on the same chip was activated/deactivated in a similar way and served as a negative control. The MMR sdAbs were used as analytes in eleven different concentrations, ranging from 1 to 2000 nM, at a flow rate of […]. Glycine-HCl 50 mM (pH 2.0) was used for elution. The kinetic and equilibrium parameters (kd, ka and KD) values were calculated from the combined sensogram of all concentrations using BIAcore™ T100 evaluation software 2.02 (GE Healthcare).
(§2) The binding characteristics and affinity of selected Nbs towards the recombinant hMMR and recombinant mMMR antigen was examined in further detail using surface plasmon resonance. A combined sensogram was recorded for each Nb (example for NbhmMMRm3.49 in FIG. 5) and the kinetic and equilibrium parameters (kd, ka and KD) values were calculated (Table 4 and Table 5). Most but not all results on binding to mouse or human rMMR obtained via this SPR analysis are in agreement with the results obtained by PE-ELISA.
Background: Surface plasmon resonance follows binding to a sensor surface in real time, without labels.
As to B1, the Kd (commonly the equilibrium constant for the complex coming apart) stood at 12 nM; the koff (commonly the first-order rate constant of dissociation) worked out at 0.0036 s⁻¹; the kon (in general, a measure of how fast the partners come together) was determined as 290000 M⁻¹ s⁻¹.

With B2, the Kd was 68 nM, the koff is 0.0023 s⁻¹ and the kon turned out to be 33000 M⁻¹ s⁻¹.

As for B3, the Kd was 74 nM, the koff came to 0.0021 s⁻¹ and the kon worked out at 29000 M⁻¹ s⁻¹.

With B4, the Kd came out at 1.3 nM, the koff was determined as 0.002 s⁻¹ and the kon was 1.6e+06 M⁻¹ s⁻¹.

Turning to B5, the Kd was 8500 nM, the off-rate (koff) was determined as 0.032 s⁻¹ and the kon came out at 3700 M⁻¹ s⁻¹.

As for B6, the binding result is “no binding (tested: analyte 1 to 2000 nM)”.

B7: the Kd was 120 nM, the koff came out at 0.019 s⁻¹ and the kon was 150000 M⁻¹ s⁻¹.

As to B8, the Kd turned out to be 250 nM, the koff was determined as 0.21 s⁻¹ and the kon is 840000 M⁻¹ s⁻¹.

As to B9, the Kd came out at 39 nM, the koff is 0.0042 s⁻¹ and the kon came out at 110000 M⁻¹ s⁻¹.

With B10, the binding result is “no binding (tested: analyte 1 to 2000 nM)”.

Another assay has as its target T2, Recombinant human MMR (R&D systems) (human, UniProt P22897 19-1383).
T2 construct: Antigen of the PE-ELISA and the SPR; also called hMMR; recombinant hMMR
T2 sequence: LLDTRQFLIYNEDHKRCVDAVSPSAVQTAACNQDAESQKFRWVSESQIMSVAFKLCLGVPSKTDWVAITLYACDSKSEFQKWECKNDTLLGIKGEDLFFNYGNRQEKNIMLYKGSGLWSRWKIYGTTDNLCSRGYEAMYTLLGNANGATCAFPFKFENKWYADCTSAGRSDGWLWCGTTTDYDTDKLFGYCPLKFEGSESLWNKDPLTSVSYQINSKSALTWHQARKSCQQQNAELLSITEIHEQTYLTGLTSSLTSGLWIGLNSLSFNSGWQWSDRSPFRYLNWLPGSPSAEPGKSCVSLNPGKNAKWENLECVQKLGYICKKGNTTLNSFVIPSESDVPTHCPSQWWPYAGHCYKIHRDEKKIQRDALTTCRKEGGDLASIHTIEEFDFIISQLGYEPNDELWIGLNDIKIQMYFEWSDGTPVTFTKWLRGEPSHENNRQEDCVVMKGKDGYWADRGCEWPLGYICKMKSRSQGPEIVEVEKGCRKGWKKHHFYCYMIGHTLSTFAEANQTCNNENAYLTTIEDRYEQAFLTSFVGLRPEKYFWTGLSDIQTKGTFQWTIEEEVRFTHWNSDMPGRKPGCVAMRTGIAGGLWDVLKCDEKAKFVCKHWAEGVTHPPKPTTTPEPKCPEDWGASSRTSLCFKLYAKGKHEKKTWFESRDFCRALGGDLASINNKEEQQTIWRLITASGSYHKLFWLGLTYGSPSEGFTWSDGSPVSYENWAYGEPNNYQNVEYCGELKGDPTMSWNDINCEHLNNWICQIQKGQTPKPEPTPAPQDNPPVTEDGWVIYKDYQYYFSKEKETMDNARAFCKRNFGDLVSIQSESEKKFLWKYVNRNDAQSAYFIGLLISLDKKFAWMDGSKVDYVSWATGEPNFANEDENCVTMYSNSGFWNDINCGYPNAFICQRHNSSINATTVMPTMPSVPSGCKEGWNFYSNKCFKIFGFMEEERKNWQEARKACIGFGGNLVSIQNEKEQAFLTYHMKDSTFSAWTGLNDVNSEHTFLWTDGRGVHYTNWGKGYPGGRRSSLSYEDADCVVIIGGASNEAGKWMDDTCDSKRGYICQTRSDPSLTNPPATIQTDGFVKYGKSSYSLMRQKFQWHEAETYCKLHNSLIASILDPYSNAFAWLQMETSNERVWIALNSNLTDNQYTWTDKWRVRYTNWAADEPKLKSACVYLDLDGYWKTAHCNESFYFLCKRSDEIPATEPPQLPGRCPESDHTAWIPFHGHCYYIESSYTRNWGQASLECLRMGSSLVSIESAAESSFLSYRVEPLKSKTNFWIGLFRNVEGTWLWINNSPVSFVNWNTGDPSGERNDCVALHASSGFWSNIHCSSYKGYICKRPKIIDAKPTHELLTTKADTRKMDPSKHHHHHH
Briefly: SPR, BIAcore T100; human MMR on CM5 chip, sdAb as analyte. Here is the method: as §1, §2
As to B1, the Kd turned out to be 1.8 nM, the koff is 0.0008 s⁻¹ and the association rate constant (kon) is 440000 M⁻¹ s⁻¹.

For B2, the Kd amounted to 10 nM, the koff amounted to 0.0014 s⁻¹ and the on-rate (kon) worked out at 140000 M⁻¹ s⁻¹.

With B3, the Kd is 13 nM, the koff was determined as 0.0012 s⁻¹ and the kon turned out to be 95000 M⁻¹ s⁻¹.

Turning to B4, the Kd amounted to 260 nM, the koff is 0.13 s⁻¹ and the kon came out at 510000 M⁻¹ s⁻¹.

Take B5: the Kd amounted to 1700 nM, the koff was 0.01 s⁻¹ and the kon amounted to 6000 M⁻¹ s⁻¹.

Consider B6, for which the Kd worked out at 7.7 nM, the dissociation rate constant (koff) came out at 0.0015 s⁻¹ and the kon amounted to 200000 M⁻¹ s⁻¹.

For the molecule B7, the Kd was 55 nM, the koff was found to be 0.022 s⁻¹ and the kon came to 400000 M⁻¹ s⁻¹.

B8: the Kd was determined as 50 nM, the koff was 0.031 s⁻¹ and the kon was found to be 750000 M⁻¹ s⁻¹.

On to B9, for which the Kd was determined as 420 nM, the koff was 0.0066 s⁻¹ and the kon was 16000 M⁻¹ s⁻¹.

For the molecule B10, the Kd worked out at 8.6 nM, the koff was 0.0013 s⁻¹ and the kon was 150000 M⁻¹ s⁻¹.
